The text below walks through data of patent US20080187577A1 (University of Texas, published 2008).

The assay concerns the target T1, CCK2R on AR42J cells (UniProt P30553 1-452, limits assumed).
T1 construct: whole, on cells
T1 sequence (looked up): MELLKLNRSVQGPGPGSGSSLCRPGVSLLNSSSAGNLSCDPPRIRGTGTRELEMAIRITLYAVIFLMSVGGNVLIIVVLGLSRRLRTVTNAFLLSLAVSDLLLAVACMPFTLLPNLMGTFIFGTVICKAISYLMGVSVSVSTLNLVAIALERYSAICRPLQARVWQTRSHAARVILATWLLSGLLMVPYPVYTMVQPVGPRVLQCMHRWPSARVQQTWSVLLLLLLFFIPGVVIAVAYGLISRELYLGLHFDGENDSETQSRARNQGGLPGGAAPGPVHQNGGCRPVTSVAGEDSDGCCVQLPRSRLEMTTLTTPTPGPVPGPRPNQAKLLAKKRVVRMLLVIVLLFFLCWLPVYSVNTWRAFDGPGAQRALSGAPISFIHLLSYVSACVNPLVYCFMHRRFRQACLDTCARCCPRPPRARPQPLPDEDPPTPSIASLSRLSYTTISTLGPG
As to the kind of experiment: displacement of ^125I-BH-CCK8 from AR42J cells.

Method: For these experiments, AR42J cells were expanded in vitro in 175 mm flasks and grown to subconfluence in the growth medium containing 10% FCS. All binding assays were performed 36-48 h after seeding the cells in culture medium containing 10% FCS and 2% glutamine. Before the start of the binding assays, the cells in culture were washed with Hanks Balanced salt solution (HBSS) (GIBCO) containing 0.1% BSA and 25 mM HEPES (Sigma) and scraped with a rubber policeman into conical tissue culture polystyrene tubes. Cells were centrifuged at 500 g for 5 min and resuspended in HBSS at a concentration of 2×10⁶ cells/ml. Aliquots (˜1.0 ml) of suspended cells in polystyrene tubes were used in the binding assays. […] Binding assays were performed at 37° C. for 30-60 min at pH 6.5 (optimal for binding).
Non-specific binding was determined in the presence of 1000× excess of the non-labeled homologous peptide. At the end of the incubation, the cells were pelleted and washed twice with 1 ml of fresh ice-cold HBSS plus 0.1% BSA. Cell pellets were counted for ¹²⁵I in a gamma counter with ˜70% efficiency for ¹²⁵I.

B1: full-length recombinant human PG1-80 (rhPG) (ligand)
chain: SWKPRSQQPDAPLGTGANRDLELPWLEQQGPASHHRRQLGPQGPPHLVADPSKKQGPWLEEEEEAYGWMDFGRRSAEDEN
notes: Expressed in E. coli from pET32 as a thioredoxin fusion and purified; also called recombinant human progastrin; progastrin
In the case of B1, the binding result is “no binding”.
